# Measured values published in the nanobody polyreactivity screen of Harvey et al. (2022).
# Assay: yeast display, Sf9 membrane polyspecificity reagent, FACS + sequencing; frameworks hold sequencing errors
# Procedure, shortened: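 Synthetic nanobody libraries on Saccharomyces cerevisiae BJ5465 were galactose-induced for 36–48 hours, stained 1 hour at 4 °C with 10% biotinylated, detergent-solubilized Sf9 membrane reagent and enriched on streptavidin microbeads. FACS then separated cells into low and high (top ~1%) gates by anti-HA (expression) and streptavidin (reagent binding) fluorescence. Genes were colony-PCR amplified, MiSeq 2 × 250 sequenced and CDR-length filtered. A clone's polyreactivity label is that of its gate of origin.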
row,Sequence,polyreactivity (PSR sort gate)
1,QVQLVESGGGLVQAGGTLRFSCAASGFTFYVYAMGWYRQAPGKERELVAAISKSGGSTYYADSVKGRFTISRDNAKNTVYLQMNSLKPEDTAVYYCAVYDKRSGYRGGHRYNSWGQGTQVTVSS,high polyreactivity
2,QVQLVESGGGLVQAGGSLRLSCAASGFTFYSYARGWYRQAPGKERELVAVINSSGGRTFYADSVKGRFTISRDNAKNTVYLQMNSLKPEDTAVYYCAARYAASRGPNQGKGNYWGQGTQVTVSS,high polyreactivity
3,QVQLVESGGGLVQAGGSLRLSCAASGRIFFGNAMGWYRLAPGKEREFVAAITWRGGNTYYADSVKGRFTISRDNAKNTVYLQMNSLKPEDTAVYDCNASPSEVRRRYDYWGQGTQVTVSS,high polyreactivity
4,QVQLVESRGGLVQAGGSLRLSCAASGATFNHYAMGWYRQAPGKERELVAAITKSGGSTYADSVKGRFTISRDNAKKTVYLQMNSLKPEDTAVYYCAAGRRKYGTKGRGDYWGQGSQVTVSS,low polyreactivity
5,QVQLVESGGGLDQAGGSLRLTCAASGSTFYLYDMGWYRQAPGKERELVAVISWSGGSTSYADSVKGRFTISSDNAKNTVYLHMNSLTPEDTAVYYCAAAIGVYYIDYRYLGTVEYWGQGTQVTVSS,low polyreactivity
6,QVQLVESGGGLVQAGGSLRLSCAASGLTLSYNAMGWYRQAPGKERELVAAIRSGGSTNYADSVKGRFTISRDNAKNTVYLQMNSLKPEDTAVYYCAARFRYLPYRYGRYQSGYEYWGLGTQVTVSS,high polyreactivity
7,QVQLVESGGVLVQAGGSLRLSCAASGSIFYVNAMGWYRQAPGKERELVATITTDGSTNYADSVKGRFTISRDNAKNTVYLPMNSLKPEDTAVYYCAAERWLATPTVPWYLYNYWGQGTQVTVSS,low polyreactivity
8,QVQLVESGGGLVQAGGSLRLSCSASGFTFDSYAMGWYRQAPGKERELVAAITSDGSTYYADSVKGRFTISRDNAKNTVYLQMNSLKPEDTAVYYCAADGRYFRAVFRLYDYWGQGTQVTVSS,low polyreactivity
9,QVQLVESGGGLVQAGGSLRLSCAASGSTFIGYAMGWYRHAPGKERELVAGINWSSGSTNYADSVKGRFTISRDNAKNTVYLQMNSLIPEDTAVYYCAADLYWYAHREEYDYWGQGTQVTVSS,high polyreactivity
10,QVHLQESGSGLVQSGGSLRLTCAASGYISLGDNMGWYRQAPGKELEFVATISVGGITYYVDSVKGPFTISRDIEKNTVYLQMNSLKPEDTAVYYCASLDIYYFRYYYWGQGTQVTVSS,low polyreactivity
11,QVQLVESGGGLVQAGGSLRLSCAASGRIFKYNAMGWYRQAPGKERELVAAIRRSGGSTYYADSVKGRFTISRDNAKNPVYLQMNSLNPEDTAVYYCAATGYVGGIYGHYPRGYWGQGTQVTVSS,high polyreactivity
12,QVQLVESGGGLVQAGGSLRLSCASSGSTFYSYVMGWYRQAPGKERELVAVISNDGSTNYADSVKGRFTISRDNAKNSVYLQMNSLKPEDTAVYYCDALKFVRAYRYYYWGQGTQVTVSS,low polyreactivity
13,QVQLVESGGGLVQAGGSLRLSCAASGFIFSRYAMGWYRQAPGKERELVAAIRFSGSITYYADSVKGRFTISRDNAKNTVYLQMNSLKPEDTAVYYCAAYRRYYGWYEYWGQGTQVTVSS,high polyreactivity
14,QVQLVESGGGLVQAGGSLLLSCAASGRIFQFYAMGWYRQAPGKERELVAGITTSGGSTYYADSVKGRFTISRDTAKNTVYLQMNSLKPEDTAVYYCAKRYYSSQFSKFGYWGQGSQVTVSS,high polyreactivity
15,QVQLVESGGGLVQAGGSLRLSCAASGRIFSPNAMGWYRQAPGKERELVAAITRGGSTNYADSVKGRFTISRDNAKNTVYLQMNSLKPEDTAVYYCAAQLAKTIRGRGYNSWGQGTKVTVSS,low polyreactivity
16,QVQLVESGGGLVQAGGSLRLSCAASVFTFPPYAMGWYRQAPGKERELVAAISSAGSTKYADSVKGRFTISRDNAKNTVYLQMNSLKPEDTAVYYCAARWARSYDYWGQGTQVTVSS,low polyreactivity
17,QFQLVESGGGLVQAGGSLRLSCAASGRIFCRYAMGWYRQAPGKETELVPVISARGARTYYEDSVKGRFTISRDNAKYTVYLQMNSLKPEDTAVYYCNKVGVLSGYYYPHASGDYWGQGTQVTVSS,high polyreactivity
18,QDQLVESGGGLVQAGGSLRLSCAASGFTFGDYAMGWYRQEPGKERELVAAISWSGSNTYYADSVKGRFTISRDNAKNTVYLQMNSLKPEDTAVYYCNADYDPEDMDYWGQGTQVTVSS,low polyreactivity
19,QVQLVESGGGLVQAGCSLRLSCAASGSTFSYIAMGWYRQAPGKERELVAAITSGSSTNYADSVKGRFTISRDNAKYTVYLQMNSLKPEDTAVSYCAADGYQDKYYWLETWVGYWGHGTQVTVSS,low polyreactivity
20,QVQLVESGGGLVQAGGSLRLSCAASGSTFTGYAMGWYRQAPGKERELVAAIDVSGATTYYADSVKGRFTISRDNAKNTVYLQMNSLKPEDTAVYYCATYATNSVAAYDYWGQGTQVTVSS,low polyreactivity
21,QVQLVESGGGLVQAGGSLRLSCAASGRTLSGYVMGWYRQAPGKERELDAAIDWSGGTTYYADSVKGRFTISRDTAKNTVYVQMNSLKPEDTAVYYCAAEVLSWLYWPYYYWGQGSQVTVSS,high polyreactivity
22,QGQLVESGGGLVQAGGSLRLSCAASGFTFYYNAMGWYRQAPGQERELVAAISTRGGNTYYADSVKGRFTISRDNAKNTVYLQMNSLKPEDTAVYYCARKIRREGRYDYWGQGTQVTVSS,high polyreactivity

row,Sequence,polyreactivity (PSR sort gate)
1,QVQLVESGGGLVQAGGSLRLSCAASGYTFKTYAMGWYIQAPGKERELVAAISGSGGSTYYADSVKGRFTISRDNAKNTVYLQMNSLKPEDTEVYFCAATNWWGTEYDYWGQGTQVTVSS,high polyreactivity
2,QVQLVESGGGLVQAGGSLRLSCAASGFTFSTYAMGWYRQAPGKESELVAVISGGDSTSYADSVKGRFTISRDNAKNTVYLQMNSLKPEDTAVYYCAADRYGGYYGDTYYTGLFNYWGQGTQVTVSS,high polyreactivity
3,QVQLVESGGGLVQAGGTLRLSCAASGGTFVSRAMGWYRQAPGKERELVAAISFSGDSTYYADSVKGRFTISRDNAKNTVYLQMNSLKPEDTAVYYCRFYSYWSWLGREYDYWGQGTQVTVSS,low polyreactivity
4,QVQLVESGGGLVQAGGSLRLSCAASGLTFYTYAMGWYRQAPGKERELVAAISGRGSRTFYADSVKGRFTISRDNAKNTVYLQMNSLKPEDTAVYYCAARVWSSFTGAYDYWGQGTQVTVSS,high polyreactivity
5,QVQLVESGGGLVQAGGSLRLSCAASGSTFRWYTMGWYRQATGKERDLVAAINQSGSRTYYADSVKGRFTISRDNAKNTVYLQMNSLKPEDTAVYYCNAKSYKSPHTYYYWGQGTQVTVSS,high polyreactivity
6,QVQLVESGGGLVQAGGSLRLSCAASGFIFSYYAMGWYRQAPGKERELVAAINYSGGRTYYADSVKGRFTISRDYAKNTVYLQMNSLKPEDTAVYYCNAVTFGRRAFDYWGQGTQVTVSS,high polyreactivity
7,QVQLVESGGGLVQAGGSLRLSCAASGRIFYVYTLGWYRQAPGKERELVAAITSGGSTNYADSVKGRFTISRDNAKNTVYLQMNSLKPEDTAVYFCAKKAWVIYNRKFSSGYDYWGQGTQVTVSS,low polyreactivity
8,QVQLVESGGGLVQAGGSLRLSCAASGLTFGYYTMGWYRQAPGKERELVAAITYSGGSTYYADSVKGRFTISRDNAKNTVYLQMNSLKPEDTAVYYCAAEGPVYTTYEYWGQGTQVTVSS,low polyreactivity
9,QVQLVESGGGLVQAGGSLRLSCAASGSIFFWNDMGWYRQAPGKERELVAAISWSGGSTSYADSVKGRFTISRDNAKNTVYLQMNSLKPEDTAVYYCAAEYTYGSPYDYWGQGTQVTVSS,low polyreactivity
10,QVQLVESGGGLVQAGGSLRLSCAASGRTFRYNALGWYRQAPGKETELVAAISGRGSSTYYADSVKGRFTISRDNAKNTVYLQMNSLKPEDTAVYYCAALPASVRRPGWHDYWGQGTEVTVSS,high polyreactivity
11,QVQLVESGGGLVQAGGSLRLSCAASGRTFWPYAMGWYRQAPGKERELVAAITSDGSTTYADSVTGRFTISRDNAKNTVYLQMNSLTPEDTAVYYCAAYGYYYDQTIPMDYWGQGTQVTVSS,low polyreactivity
12,QGQLVESGGGLLQAGGSLSLSCAATGFTFTENAMGWYRQEPGKEREFVAYISSSGDSTYYSDSVKGRFTISRDNAKNTVYLQMNSLKPEDTAVYYCYRDLVYDYYYVPQPSRFDYWGQGTQVTLSS,high polyreactivity
13,QVQLVESAGGLVQAGGSLRLSGAASGSTFHNYAVGWSRQAPGKERELVGGISVRGGGTYYADSVKGRFTISRDNAKNTVYLQMNSLKPEDTAVYYCAQRSRYYYRYDYWGQGTQVTVSS,high polyreactivity
14,QVQLVESGGGLVQAGGSLRLSCAASGSTFGAYDMGWYRQAPGKERELVAVISSRDGSTYYADSVKGRFTISRDNAKNTVYLQMNSLKPEDTAVYYCAADYPVPYNGGDGSWGQGTQVTVSS,low polyreactivity
15,QVQLVESGGGLVQAGGSLRLSCAASGRTFYDYAMGWYRQAPGKERELVAAITYRDGTTYYADSVKGRFTISRDNAKNTVYLQMNSLKPEDTAVYDCGKTYYYSLGHGYNYWGQGTQVTVSS,low polyreactivity
16,QVQLVESGGGLVQAGGSLRLSCAASGRIFTVYAMGWYRQAPGKERELVAAITRGGGGTYYADSVKGRFTISRDNAKNTVYFQMNSLKPEETAVYYCAAAYRGDRWSYRVDYWGQGTQVTVSS,high polyreactivity
17,QVQLVESGGWLVQAGGSLRLSCAASGSIFTINTMGWYRQARGKERELVAAITGSGGITYYADSVKGRFTISRDNAKNTVYLQMNSLNPVDTAVYYCAAVVYGTVRRVGWYYVGEGYDYWGQGTQVTVSS,low polyreactivity
18,QVQLVESGGGLVQAGGSLRLSCAASGSTFDRYAMGWYRQAPGKERELVAAITRGGSTYYADSVKGRFTISRDNAKNTVYLQMNSLKPEDTAVYYCAAAQWWFRVRGARYYYWGQGTQVTVSS,high polyreactivity
19,QVQLVESGGGLVQAGGSLRLSCAASGITFRVYAMGWYRQAPGKERELVADISGTGGSTYYADSVKGRFTISRDYAKNTVYLQMNSLKPEDTAVYYCAAVYGFYYSFLQDSYGYWGQGTQVTVSS,low polyreactivity
20,QVQLVESGGGLVQEGGSLRLSCAASGSTFYYYAMGWYRQAPGKERELVAAISSSGSTYYADSVKGRFTISRDNAKNTVYLQMISLNPEDTAVFYCNADSRTAGLNSEYDYWGQGTQVTVSS,low polyreactivity
21,QVQLVESGGGLVQAGGSLRLSCAASGFTFDYYTMGWYRQAPGKERELVATITRSAGRTYYADSVKGRFTISRDNAKNTVYLQMNSLKPEDTAVYYCNADAYVYFDDGDYWGQGTQVTVSS,low polyreactivity
